Columns and labels:
[1] = biological target: His-tagged Mus musculus importin α (Mus musculus) (UniProt P52293); experiment: AlphaScreen or HTRF; His-tagged IMPαs (30 nM) titrated with increasing concentrations of biotinylated GST-MmIMPβ1 (legend: 5 nM)
[2] = biological target: His-tagged Toxoplasma gondii importin α (Toxoplasma gondii); experiment: as above
[3] = biological target: His-tagged GCN5-NLS-GFP (NLS of T. gondii histone acetyltransferase GCN5 fused to GFP) (Toxoplasma gondii); experiment: AlphaScreen or HTRF; biotinylated IMPαs titrated against His-tagged NLS-GFPs (30 nM); apparent dissociation constant
[4] = biological target: His-tagged TGS1-NLS-GFP (NLS of P. falciparum trimethylguanosine synthase fused to GFP) (Plasmodium falciparum); experiment: as above

| Kd [1] | Substance | Kd [2] | Kd [3] | Kd [4] |
| --- | --- | --- | --- | --- |
| 2.5 nM | biotinylated GST-MmIMPβ1 (Mus musculus importin β1) (from UniProt P70168 1-876) (natural protein) |  |  |  |
|  | biotinylated GST-MmIMPβ1 (Mus musculus importin β1) (from UniProt P70168 1-876) | 1.2 nM |  |  |
|  | mammalian IMPα/β1 heterodimer from M. musculus (from UniProt P52293 1-529; P70168 1-876) (complex) |  | 3.2 nM | 2.5 nM |
|  | Toxoplasma gondii importin α, biotinylated GST fusion protein (natural protein) |  | 5 nM | 1.9 nM |
